Substitutions are numbered along the chain they refer to. Names may count otherwise. “And” between values parts separate entries of the source, which are not always exact repeats. Equal values may be shown once. Read-outs that look alike come from different tables or passages of the source.
B1: Rabbit antibody 10273 (antibody, V domains shown)
VH: QSVEESGGRLVTPGTPLTLTCTVSGFSLSSYGMSWVRQAPGKGLEWIGIISSSGSTYYASWAKGRFTISKTSTTVDLKIASPTTEDTATYFCARDHIYRYDDYGDYPTYYGMDPWGPGTLVTVSS
VL: AVVLTQTPSPMSAAVGGTVTISCQSSQSVYNNNDLAWYQQKPGQPPKLLIYRASTLASGVPSRFSGSGSGTQFTLTISGVQCDDAATYYCLGGYDDDVDTYTFGGGTEVVVK
B2: LEKTI D5 Fab fusion (other)
heavy: EVQLLESGGGLVQPGGSLRLSCAVSGIDLSNYAINWVRQAPGKGLEWIGIIWASGTTFYATWAKGRFTISRDNSGGGGSGGGGSREIVKLCSQYQNQAKNGILFCTRENDPIRGPDGKMHGNLCSMCQAYFQAENEEKKKAEARARSGGGGGGGGSKNTVYLQMNSLRAEDTAVYYCARTVPGYSTAPYFDLWGQGTLVTVSSASTKGPSVFPLAPSSKSTSGGTAALGCLVKDYFPEPVTVSWNSGALTSGVHTFPAVLQSSGLYSLSSVVTVPSSSLGTQTYICNVNHKPSNTKVDKKVEPKSCHHHHHHHHHH
light: DIQMTQSPSSVSASVGDRVTITCQSSPSVWSNFLSWYQQKPGKAPKLLIYEASKLTSGVPSRFSGSGSGTDFTLTISSLQPEDFATYYCGGGYSSISDTTFGGGTKVEIKRTVAAPSVFIFPPSDEQLKSGTASVVCLLNNFYPREAKVQWKVDNALQSGNSQESVTEQDSKDSTYSLSSTLTLSKADYEKHKVYACEVTHQGLSSPVTKSFNRGEC
notes: also called LEKTI D5 Fab fusion protein; LEKTI D5Fab fusion protein
B3: 10273gL2-Q1RgH1-D19N (antibody, human IgG4 S228P, kappa, V domains shown)
VH: EVQLVESGGGLVQPGGSLRLSCAVSGFSLSSYGMSWVRQAPGKGLEWIGIISSSGSTYYASWAKGRFTISKDSSKNTVYLQMNSLRAEDTAVYYCARDHIYRYDDYGDYPTYYGMNPWGQGTTVTVSS
VL: AIQLTQSPSSLSASVGDRVTITCRSSQSVYNNNDLAWYQQKPGKAPKLLIYRASTLASGVPSRFSGSGSGTDFTLTISSLQPEDFATYYCLGGYDDDVDTYTFGGGTKVEIKR
modifications: sulphation (+80 Da) of Tyr 9 of CDR-H3, 80% of heavy chain (Table 7)
notes: Humanized graft, hIgG4P
B4: 10273 gL2-Q1RgH1-D19N-Y9F (antibody, human IgG4 S228P, kappa, V domains shown)
VH: B3 VH with Y106F
VL: B3 VL
notes: Humanized graft, hIgG4P
B5: 10273 gL2-Q1RgH1-D19N-Y15F (antibody, human IgG4 S228P, kappa, V domains shown)
VH: B3 VH with Y112F
VL: B3 VL
modifications: sulphation (+80 Da) of Tyr 9 of CDR-H3, 85% of heavy chain (Table 7)
notes: Humanized graft, hIgG4P
B6: 10273 gL2gH1 (antibody, human IgG4 S228P, kappa, V domains shown)
VH: B3 VH with N116D
VL: B3 VL with R24Q
modifications: sulphation (+80 Da) of Tyr 9 of CDR-H3, 95% of heavy chain (hIgG4P, Table 7)
notes: Humanized graft
B7: 10273 gL2-Q1RgH1-D19N-T14V (antibody, human IgG4 S228P, kappa, V domains shown)
VH: B3 VH with T111V
VL: B3 VL
modifications: sulphation (+80 Da) of Tyr 9 of CDR-H3, 75% of heavy chain (Table 7)
notes: Humanized graft, hIgG4P
B8: 10273 gL2-Q1RgH1-D19N-Y16F (antibody, human IgG4 S228P, kappa, V domains shown)
VH: B3 VH with Y113F
VL: B3 VL
modifications: sulphation (+80 Da) of Tyr 9 of CDR-H3, 75% of heavy chain (Table 7)
notes: Humanized graft, hIgG4P
B9: 10273 gL2-Q1RgH1-D19N-Y6F (antibody, human IgG4 S228P, kappa, V domains shown)
VH: B3 VH with Y103F
VL: B3 VL
modifications: sulphation (+80 Da) of Tyr 9 of CDR-H3, 75% of heavy chain (Table 7)
notes: Humanized graft, hIgG4P
B10: 10273 gL2-Q1RgH1-D19N-Y12F (antibody, human IgG4 S228P, kappa, V domains shown)
VH: B3 VH with Y109F
VL: B3 VL
modifications: sulphation (+80 Da) of Tyr 9 of CDR-H3, 75% of heavy chain (Table 7)
notes: Humanized graft, hIgG4P
B11: 10273 gL2-Q1RgH1-D19N-Y4F (antibody, human IgG4 S228P, kappa, V domains shown)
VH: B3 VH with Y101F
VL: B3 VL
modifications: sulphation (+80 Da) of Tyr 9 of CDR-H3, 85% of heavy chain (Table 7)
notes: Humanized graft, hIgG4P
B12: 10273 gL2-Q1RgH1-D19N-T14S (antibody, human IgG4 S228P, kappa, V domains shown)
VH: B3 VH with T111S
VL: B3 VL
modifications: sulphation (+80 Da) of Tyr 9 of CDR-H3, 65% of heavy chain (Table 7)
notes: Humanized graft, hIgG4P

Tests used:
[1] = target: T1, Active human KLK5 (human, UniProt Q9Y337 67-293)
[2] = target: T1, Active human KLK5; assay: cell-based or functional assay
[3] = target: T1, Active human KLK5; assay: SPR; rabbit antibody 10273 captured on anti-rabbit Fc and saturated with 20 nM human KLK5, LEKTI D5 Fab fusion as analyte (KLK5 in complex with 10273); 1:1 model
Experimental: (§1) 20 nM of human KLK5 was then injected until the surface reached saturation. LEKTI D5 Fab fusion protein (generated as described in example 1) was then injected at concentrations between 30 μM and 100 nM. Values from buffer only injections were first subtracted from those obtained with the analytes before fitting to a 1:1 binding kinetic model in Biacore™ evaluation software (GE Life Sciences™)
(§2) As reference, LEKTI D5 Fab fusion protein was immobilised to the chip surface prior to monitoring the interaction with human KLK5.

[4] = target: T1, Active human KLK5; assay: SPR; rabbit antibody 10273 captured on anti-rabbit Fc and saturated with 20 nM human KLK5, LEKTI D5 Fab fusion as analyte (KLK5 in complex with 10273); average value n = 2; human KLK5 already in complex with captured rabbit antibody 10273; LEKTI D5 Fab fusion as analyte; average n = 2
Experimental: as §1, §2

[5] = target: T1, Active human KLK5; assay: SPR (Biacore T200, 25 C); IgG captured on anti-human IgG Fc, human KLK5 as analyte; 1:1 model; duplicate sample
Experimental: (§3) The kinetics of these grafts for binding to human KLK5 were assessed by surface plasmon resonance (Biacore T200) at 25° C.
(§4) A goat anti-human IgG Fc specific antibody (Jackson ImmunoResearch) was immobilised on a CM5 Sensor Chip via amine coupling chemistry to a level of approximately 7000RU. Each analysis cycle consisted of capture of the anti-KLK5 IgG molecules to the anti Fc surface, injection of KLK5 analyte (prepared in house) for 180 s at 30 μl/min followed by 600 s dissociation. At the end of each cycle the surface was regenerated at a flowrate of 10 μL/min using a 60 s injection of 50 mM HCl followed by a 30 s injection of 5 mM NaOH and a final 60 s injection of 50 mM HCl. Human KLK5 was titrated from 20 nM to 0.74 nM (3×3-fold serial dilutions) in HBS-EP+running buffer (GE Healthcare) supplemented with NaCl to a final concentration of 300 mM. Buffer blank injections were included to subtract instrument noise and drift.
(§5) Kinetic parameters were determined using a 1:1 binding model using Biacore T200 Evaluation software.

[6] = target: T1, Active human KLK5; assay: SPR (Biacore T200, 25 C); IgG captured on anti-human IgG Fc, human KLK5 as analyte; 1:1 model
Experimental: as §3, §4, §5

Molecule	Kd [6] [nM]	koff [6] [s⁻¹]	kon [6] [M⁻¹ s⁻¹]	further results
Human LEKTI D5 rabbit Fc (Fc fusion)	–	–	–	IC50 (read off the curve) [1]: 200 nM; IC50 (M), inhibition of kallikrein protease activity (fluorogenic peptide substrate) [2]: 1.03e-10 M
B1	–	–	–	IC50 (read off the curve) [2]: ~50 nM
B2	–	–	–	koff [3]: 0.000565 s⁻¹; kon [3]: 28700 M⁻¹ s⁻¹; Kd [4]: 13.4 nM
B3	–	–	–	Kd [5]: 0.41 nM and 0.309 nM; koff [5]: 0.000175 s⁻¹ and 0.000133 s⁻¹; kon [5]: 427000 M⁻¹ s⁻¹ and 257000 M⁻¹ s⁻¹
B4	0.554	0.0002	362000	–
B5	0.249	0.000139	558000	–
B6	0.164	8.45e-05	514000	–
B7	6.9	0.00251	364000	–
B8	5.77	0.0016	277000	–
B9	0.625	0.000186	298000	–
B10	0.319	0.000138	432000	–
B11	1.15	0.000519	451000	–
B12	0.644	0.000165	257000	–
